Data published in patent publication US20230151084A1, “COMPOSITIONS AND METHODS OF […] CELL RESPONSE” (CASE WESTERN RESERVE UNIVERSITY, priority 2015, published 2023).

Tested on: B cells
Assay: BAFF and APRIL B cell growth (viability signaling in B cells)
Assay type: cell-based
Conditions: added C5a, compared with disabling B cell C3aR/C5aR signaling, which suppressed growth (FIG. 3)
Source text: FIGS. 3(A-B) illustrate graphs showing BAFF and APRIL viability signaling in B cells depends on C3aR/C5aR signaling.
(FIGS. 1(A-C) and FIGS. 2(A-B)). […] (FIGS. 3(A-C)). […] (FIGS. 4(A-B)). Following ova immunization, recipients of adoptively transferred C3ar1^−/−C5ar1^−/− B cells produced reduced IgM Ab and no other isotypes.

B1: C5a: complement anaphylatoxin C5a, ligand of the C5a receptor (C5aR), added to B cells (protein, UniProt P01031 678-751, looked up)
C5a anaphylatoxin: TLQKKIEEIAAKYKHSVVKKCCYDGACVNNDETCEQRAARISLGPRCIKAFTECCVVASQLRANISHKDMQLGR
modifications: C5a anaphylatoxin
notes: complement anaphylatoxin C5a, ligand of the C5a receptor (C5aR), added to B cells
In the case of B1, the “BAFF and APRIL B cell growth” value is reported as “opposite effect”.
